“Also recorded” adds a separate entry of the source.
B1: CDK4 R24C: hyperactive CDK4 mutant, COSMIC database (protein, UniProt P11802 2-303, looked up, variant R24C)
Cyclin-dependent kinase 4: ATSRYEPVAEIGVGAYGTVYKACDPHSGHFVALKSVRVPNGGGGGGGLPISTVREVALLRRLEAFEHPNVVRLMDVCATSRTDREIKVTLVFEHVDQDLRTYLDKAPPPGLPAETIKDLMRQFLRGLDFLHANCIVHRDLKPENILVTSGGTVKLADFGLARIYSYQMALTPVVVTLWYRAPEVLLQSTYATPVDMWSVGCIFAEMFRRKPLFCGNSEADQLGKIFDLIGLPPEDDWPRDVSLPRGAFPPRGPRPVQSVVPEMEESGAQLLLEMLTFNPHKRISAFRALQHSYLHKDEGNPE
B2: CDK4 D158D: CDK4 control with one nucleotide substitution that did not change the amino acid (protein, UniProt P11802 2-303, looked up)
Cyclin-dependent kinase 4: ATSRYEPVAEIGVGAYGTVYKARDPHSGHFVALKSVRVPNGGGGGGGLPISTVREVALLRRLEAFEHPNVVRLMDVCATSRTDREIKVTLVFEHVDQDLRTYLDKAPPPGLPAETIKDLMRQFLRGLDFLHANCIVHRDLKPENILVTSGGTVKLADFGLARIYSYQMALTPVVVTLWYRAPEVLLQSTYATPVDMWSVGCIFAEMFRRKPLFCGNSEADQLGKIFDLIGLPPEDDWPRDVSLPRGAFPPRGPRPVQSVVPEMEESGAQLLLEMLTFNPHKRISAFRALQHSYLHKDEGNPE
modifications: silent D158D nucleotide variant
B3: CDK4 F93I: predicted drug resistant CDK4 mutant (protein, UniProt P11802 2-303, looked up, variant F93I)
Cyclin-dependent kinase 4: ATSRYEPVAEIGVGAYGTVYKARDPHSGHFVALKSVRVPNGGGGGGGLPISTVREVALLRRLEAFEHPNVVRLMDVCATSRTDREIKVTLVIEHVDQDLRTYLDKAPPPGLPAETIKDLMRQFLRGLDFLHANCIVHRDLKPENILVTSGGTVKLADFGLARIYSYQMALTPVVVTLWYRAPEVLLQSTYATPVDMWSVGCIFAEMFRRKPLFCGNSEADQLGKIFDLIGLPPEDDWPRDVSLPRGAFPPRGPRPVQSVVPEMEESGAQLLLEMLTFNPHKRISAFRALQHSYLHKDEGNPE
B4: CDK4 T102K: predicted drug resistant CDK4 mutant (protein, UniProt P11802 2-303, looked up, variant T102K)
Cyclin-dependent kinase 4: ATSRYEPVAEIGVGAYGTVYKARDPHSGHFVALKSVRVPNGGGGGGGLPISTVREVALLRRLEAFEHPNVVRLMDVCATSRTDREIKVTLVFEHVDQDLRKYLDKAPPPGLPAETIKDLMRQFLRGLDFLHANCIVHRDLKPENILVTSGGTVKLADFGLARIYSYQMALTPVVVTLWYRAPEVLLQSTYATPVDMWSVGCIFAEMFRRKPLFCGNSEADQLGKIFDLIGLPPEDDWPRDVSLPRGAFPPRGPRPVQSVVPEMEESGAQLLLEMLTFNPHKRISAFRALQHSYLHKDEGNPE
B5: CDK4 F931 T102K: CDK4 double mutant F93I and T102K (protein, UniProt P11802 2-303, looked up, variant F93I T102K)
Cyclin-dependent kinase 4: ATSRYEPVAEIGVGAYGTVYKARDPHSGHFVALKSVRVPNGGGGGGGLPISTVREVALLRRLEAFEHPNVVRLMDVCATSRTDREIKVTLVIEHVDQDLRKYLDKAPPPGLPAETIKDLMRQFLRGLDFLHANCIVHRDLKPENILVTSGGTVKLADFGLARIYSYQMALTPVVVTLWYRAPEVLLQSTYATPVDMWSVGCIFAEMFRRKPLFCGNSEADQLGKIFDLIGLPPEDDWPRDVSLPRGAFPPRGPRPVQSVVPEMEESGAQLLLEMLTFNPHKRISAFRALQHSYLHKDEGNPE
B6: CDK4 I12L: predicted drug resistant CDK4 mutant (protein, UniProt P11802 2-303, looked up, variant I12L)
Cyclin-dependent kinase 4: ATSRYEPVAELGVGAYGTVYKARDPHSGHFVALKSVRVPNGGGGGGGLPISTVREVALLRRLEAFEHPNVVRLMDVCATSRTDREIKVTLVFEHVDQDLRTYLDKAPPPGLPAETIKDLMRQFLRGLDFLHANCIVHRDLKPENILVTSGGTVKLADFGLARIYSYQMALTPVVVTLWYRAPEVLLQSTYATPVDMWSVGCIFAEMFRRKPLFCGNSEADQLGKIFDLIGLPPEDDWPRDVSLPRGAFPPRGPRPVQSVVPEMEESGAQLLLEMLTFNPHKRISAFRALQHSYLHKDEGNPE
B7: CDK4 A33S: predicted drug resistant CDK4 mutant (protein, UniProt P11802 2-303, looked up, variant A33S)
Cyclin-dependent kinase 4: ATSRYEPVAEIGVGAYGTVYKARDPHSGHFVSLKSVRVPNGGGGGGGLPISTVREVALLRRLEAFEHPNVVRLMDVCATSRTDREIKVTLVFEHVDQDLRTYLDKAPPPGLPAETIKDLMRQFLRGLDFLHANCIVHRDLKPENILVTSGGTVKLADFGLARIYSYQMALTPVVVTLWYRAPEVLLQSTYATPVDMWSVGCIFAEMFRRKPLFCGNSEADQLGKIFDLIGLPPEDDWPRDVSLPRGAFPPRGPRPVQSVVPEMEESGAQLLLEMLTFNPHKRISAFRALQHSYLHKDEGNPE
B8: CDK4 G18A: predicted drug resistant CDK4 mutant (protein, UniProt P11802 2-303, looked up, variant G18A)
Cyclin-dependent kinase 4: ATSRYEPVAEIGVGAYATVYKARDPHSGHFVALKSVRVPNGGGGGGGLPISTVREVALLRRLEAFEHPNVVRLMDVCATSRTDREIKVTLVFEHVDQDLRTYLDKAPPPGLPAETIKDLMRQFLRGLDFLHANCIVHRDLKPENILVTSGGTVKLADFGLARIYSYQMALTPVVVTLWYRAPEVLLQSTYATPVDMWSVGCIFAEMFRRKPLFCGNSEADQLGKIFDLIGLPPEDDWPRDVSLPRGAFPPRGPRPVQSVVPEMEESGAQLLLEMLTFNPHKRISAFRALQHSYLHKDEGNPE
B9: CDK4 A157S: predicted drug resistant CDK4 mutant (protein, UniProt P11802 2-303, looked up, variant A157S)
Cyclin-dependent kinase 4: ATSRYEPVAEIGVGAYGTVYKARDPHSGHFVALKSVRVPNGGGGGGGLPISTVREVALLRRLEAFEHPNVVRLMDVCATSRTDREIKVTLVFEHVDQDLRTYLDKAPPPGLPAETIKDLMRQFLRGLDFLHANCIVHRDLKPENILVTSGGTVKLSDFGLARIYSYQMALTPVVVTLWYRAPEVLLQSTYATPVDMWSVGCIFAEMFRRKPLFCGNSEADQLGKIFDLIGLPPEDDWPRDVSLPRGAFPPRGPRPVQSVVPEMEESGAQLLLEMLTFNPHKRISAFRALQHSYLHKDEGNPE
B10: CDK4 T102R: predicted drug resistant CDK4 mutant (protein, UniProt P11802 2-303, looked up, variant T102R)
Cyclin-dependent kinase 4: ATSRYEPVAEIGVGAYGTVYKARDPHSGHFVALKSVRVPNGGGGGGGLPISTVREVALLRRLEAFEHPNVVRLMDVCATSRTDREIKVTLVFEHVDQDLRRYLDKAPPPGLPAETIKDLMRQFLRGLDFLHANCIVHRDLKPENILVTSGGTVKLADFGLARIYSYQMALTPVVVTLWYRAPEVLLQSTYATPVDMWSVGCIFAEMFRRKPLFCGNSEADQLGKIFDLIGLPPEDDWPRDVSLPRGAFPPRGPRPVQSVVPEMEESGAQLLLEMLTFNPHKRISAFRALQHSYLHKDEGNPE
B11: CDK4 L49R: predicted drug resistant CDK4 mutant (protein, UniProt P11802 2-303, looked up, variant L49R)
Cyclin-dependent kinase 4: ATSRYEPVAEIGVGAYGTVYKARDPHSGHFVALKSVRVPNGGGGGGGRPISTVREVALLRRLEAFEHPNVVRLMDVCATSRTDREIKVTLVFEHVDQDLRTYLDKAPPPGLPAETIKDLMRQFLRGLDFLHANCIVHRDLKPENILVTSGGTVKLADFGLARIYSYQMALTPVVVTLWYRAPEVLLQSTYATPVDMWSVGCIFAEMFRRKPLFCGNSEADQLGKIFDLIGLPPEDDWPRDVSLPRGAFPPRGPRPVQSVVPEMEESGAQLLLEMLTFNPHKRISAFRALQHSYLHKDEGNPE
B12: CDK4 I51F: predicted drug resistant CDK4 mutant (protein, UniProt P11802 2-303, looked up, variant I51F)
Cyclin-dependent kinase 4: ATSRYEPVAEIGVGAYGTVYKARDPHSGHFVALKSVRVPNGGGGGGGLPFSTVREVALLRRLEAFEHPNVVRLMDVCATSRTDREIKVTLVFEHVDQDLRTYLDKAPPPGLPAETIKDLMRQFLRGLDFLHANCIVHRDLKPENILVTSGGTVKLADFGLARIYSYQMALTPVVVTLWYRAPEVLLQSTYATPVDMWSVGCIFAEMFRRKPLFCGNSEADQLGKIFDLIGLPPEDDWPRDVSLPRGAFPPRGPRPVQSVVPEMEESGAQLLLEMLTFNPHKRISAFRALQHSYLHKDEGNPE

Tested on: Rb/E2F1-Dp-1 complex
Assay: CDK4 mutant activity / drug resistance in NanoBiT assay, stable cell line #11
Assay type: cell-based, human
Conditions: for luciferase signal compared to WT CDK4 (in words): no drug; for Observed drug resist.: Palbociclib/Ribociclib, KD = kinase dead
Experimental: A linear expression cassette of mutated CDK4 or CDK6 was generated by PCR mediated overlapping extension method. A pair of forward and reverse primers containing the targeted mutations was designed. The mutated codon was located in the middle of a primer flanked by 18-21 nucleotides on each side. Two PCRs (named as PCR #1 and PCR #2 in FIG. 1) were performed using UF-CMV forward and mutated reverse primers, or mutated forward and BGH-UR primers. The PCR products were cleaned up by ExoSAP-IT® (Affymetrix) to remove unconsumed dNTPs and primers. The treated PCR products were mixed together followed by dilution with water. A second round of PCR was performed using the diluted PCR mixture, and the UF and UR primers (FIG. 1). The amplified products were gel-purified. The DNA concentration was quantitated by the optical density at 260 nm using Nanodrop. The targeted mutations were incorporated in the CDK4 or CDK6 genes during the PCR mediated overlapping extension method. The introduced mutations were confirmed by the DNA sequencing.
To examine the ability of the assay to detect variants in CDK4 or CDK6 that affect function, kinase dead mutants and COSMIC (Catalogue Of Somatic Mutations in cancer) unknown mutants were created. For comparison, hyperactive CDK4 or CDK6 mutants known to be hyperactive due to less binding to natural inhibitor p16 were also created. The mutations in CDK4 or CDK6 were created by site-directed mutagenesis. WT or mutated CDK4 or CDK6 along with the CyclinD1 and SB-Rb were co-transfected, under similar conditions as previously indicated (see FIG. 9).
To examine the specificity of the assay, particular CDK4 kinase dead mutants were created. Modifications to D158 were made by changing aspartate to nonpolar alanine (D158A) or positively charged arginine (D158R). […] The mutations in CDK4 were created by site-directed mutagenesis. WT or mutated CDK4 along with the CyclinD1 and SB-Rb was co-transfected into the #11 cell line, under the same conditions as previously indicated. […] Kinase dead mutants have the high signal due to inability to phosphorylate Rb.
Computer modeling was used to reveal the drug-binding pocket and predict drug-resistant mutants. The mutations in CDK4 and CDK6 were created by site-directed mutagenesis. WT or mutated CDK4 or CDK6 along with the CyclinD1 and SB-Rb was co-transfected into #11 cell line, under the same conditions as previously indicated. […] Dose response curves are presented on FIG. 13A and FIG. 13B. Activity of other mutants was very similar to the WT or KD.
CDK4 and CDK6 mutants with known function and unknown function taken from the COSMIC database were analyzed in the present assay and are summarized in Table 7A and Table 7B. The mutants were classified according to their activity. Table 7A and Table 7B also show the number of counts per mutant in the COSMIC database, type of cancer, and luciferase activity compared to the WT (being 100%).

[1] = predicted drug resistant CDK4 mutants, relative to WT
[2] = predicted drug resistant CDK4 mutants

Molecule	Luc. activity (/wt) [1] [%]	further results
B1	–	Luc. activity (/wt) (CDK4 mutants, compared to the WT (being 100%)): 91%; luciferase signal compared to WT CDK4 (in words) (CDK4 mutants): a little bit lower basal signal than WT
B2	–	luciferase signal compared to WT CDK4 (in words) (CDK4 mutants): the same activity as a WT
B3	157	Observed drug resist. [2]: showed drug resistance; also recorded: Resistant
B4	162	Observed drug resist. [2]: showed drug resistance; also recorded: Resistant
B5	152	Observed drug resist. [2]: Resistant
B6	126	–
B7	182	–
B8	97.5	–
B9	195	–
B10	156	–
B11	281	–
B12	160	–

Source: patent US11702666B2, “Cell-based assay for determining activity in the retinoblastoma pathway” (Medical Diagnostic Laboratories, LLC, priority 2017, dated 2023)
